Conditions: Aspergillus oryzae (strain ATCC 42149 / RIB 40), GdnHCl, Fluorescence, reversible: yes, whole UniProt chain shown
[1] = pH 5, 10 °C, Sodium acetate 0.1 M
[2] = pH 5, 25 °C, Sodium acetate 0.1 M

B1: Guanyl-specific ribonuclease T1 wild type, P00651 (protein)
chain: MMYSKLLTLTTLLLPTALALPSLVERACDYTCGSNCYSSSDVSTAQAAGYQLHEDGETVGSNSYPHKYNNYEGFDFSVSSPYYEWPILSSGDVYSGGSPGADRVVFNENNQLAGVITHTGASGNNFVECT
denaturant m value [1]: 2.49 kcal/mol/M
denaturant midpoint (higher = more stable) [1]: 3.94 M
denaturant m value [2]: 2.75 kcal/mol/M
denaturant midpoint (higher = more stable) [2]: 3.63 M
denaturant m value (pH 8, 10 °C, PIPES 0.1 M): 2.63 kcal/mol/M
denaturant midpoint (higher = more stable) (pH 8, 10 °C, PIPES 0.1 M): 3.21 M
denaturant m value (pH 8, 25 °C, PIPES 0.1 M): 2.46 kcal/mol/M
denaturant midpoint (higher = more stable) (pH 8, 25 °C, PIPES 0.1 M): 2.4 M
